Eight sequences from the supplement of paper PMC11316812 can be followed below.

± gives the standard deviation of the averaged measurements.

In series [1] the test system is MCF7. The series can be described thus: percentage of EdU-negative (G0-arrested) nuclei per well, 72 h; higher = more G0 arrest. The note with it: reference: sequence is the full UniProt precursor, the tested protein was the secreted form or ectodomain.
Series [2] relates to hTERT-HMEC. The description is as above. The settings on record: reference: sequence is the full UniProt precursor, the tested protein was the secreted form or ectodomain.
The mark [3] stands for this setting: protein concentration 0.012845 µM.
Setting [4] is: protein concentration 0.12845 µM.
The mark [5] stands for this setting: protein concentration 0.0357143 µM.
Where [6] appears, read: protein concentration 0.357143 µM.
Setting [7] is: protein concentration 0.03125 µM.
Where [8] appears, read: protein concentration 0.3125 µM.
Setting [9] is: protein concentration 0.0257143 µM.
Setting [10] is: protein concentration 0.257143 µM.
The mark [11] stands for this setting: protein concentration 0.026505 µM.
The mark [12] stands for this setting: protein concentration 0.26505 µM.
Setting [13] is: protein concentration 0.02859 µM.
Setting [14] is: protein concentration 0.2859 µM.
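Note: secreted proteins added to cultured cells, EdU pulse at the end, nuclei found by Hoechst imaging, EdU status from nuclear versus surrounding ring intensity ratio, PBS as neutral control.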

Regarding “MKRSVAVWLLVGLSLGVPQFGKGDICDPNPCENGGICLPGLADGSFSCECPDGFTDPNCSSVVEVASDEEEPTSAGPCTPNPCHNGGTCEISEAYRGDTFIGYVCKCPRGFNGIHCQHNINECEVEPCKNGGICTDLVANYSCECPGEFMGRNCQYKCSGPLGIEGGIISNQQITASSTHRALFGLQKWYPYYARLNKKGLINAWTAAENDRWPWIQINLQRKMRVTGVITQGAKRIGSPEYIKSYKIAYSNDGKTWAMYKVKGTNEDMVFRGNIDNNTPYANSFTPPIKAQYVRLYPQVCRRHCTLRMELLGCELSGCSEPLGMKSGHIQDYQITASSIFRTLNMDMFTWEPRKARLDKQGKVNAWTSGHNDQSQWLQVDLLVPTKVTGIITQGAKDFGHVQFVGSYKLAYSNDGEHWTVYQDEKQRKDKVFQGNFDNDTHRKNVIDPPIYARHIRILPWSWYGRITLRSELLGCTEEE”, the “percentage of EdU-negative” value came to 25.7 ± 1.6% in series [1] (setting [3]), 30.6 ± 1.9% in series [1] (setting [4]), 4.79 ± 0.32% in series [2] (setting [3]) and 47.8 ± 1.9% in series [2] (setting [4]).
Consider “MKRVLVLLLAVAFGHALERGRDYEKNKVCKEFSHLGKEDFTSLSLVLYSRKFPSGTFEQVSQLVKEVVSLTEACCAEGADPDCYDTRTSALSAKSCESNSPFPVHPGTAECCTKEGLERKLCMAALKHQPQEFPTYVEPTNDEICEAFRKDPKEYANQFMWEYSTNYGQAPLSLLVSYTKSYLSMVGSCCTSASPTVCFLKERLQLKHLSLLTTLSNRVCSQYAAYGEKKSRLSNLIKLAQKVPTADLEDVLPLAEDITNILSKCCESASEDCMAKELPEHTVKLCDNLSTKNSKFEDCCQEKTAMDVFVCTYFMPAAQLPELPDVELPTNKDVCDPGNTKVMDKYTFELSRRTHLPEVFLSKVLEPTLKSLGECCDVEDSTTCFNAKGPLLKKELSSFIDKGQELCADYSENTFTEYKKKLAERLKAKLPDATPTELAKLVNKHSDFASNCCSINSPPLYCDSEIDAELKNIL”, for which the “percentage of EdU-negative” value is 25.9 ± 0.66% in series [1] (setting [5]), 27.2 ± 1.1% in series [1] (setting [6]), 6.02 ± 1.8% in series [2] (setting [5]) and 16.1 ± 0.49% in series [2] (setting [6]).
For “MKSFLLVVNALALTLPFLAVEVQNQKQPACHENDERPFYQKTAPYVPMYYVPNSYPYYGTNLYQRRPAIAINNPYVPRTYYANPAVVRPHAQIPQRQYLPNSHPPTVVRRPNLHPSFIAIPPKKIQDKIIIPTINTIATVEPTPAPATEPTVDSVVTPEAFSESIITSTPETTTVAVTPPTA”, the “percentage of EdU-negative” value was 24.6 ± 1.5% in series [1] (protein concentration 0.01 µM), 25.6 ± 1.9% in series [1] (protein concentration 0.1 µM), 5.78 ± 0.51% in series [2] (protein concentration 0.01 µM) and 5.65 ± 0.83% in series [2] (protein concentration 0.1 µM).
As to “MKSGLWYFFLFCLRIKVLTGEINGSANYEMFIFHNGGVQILCKYPDIVQQFKMQLLKGGQILCDLTKTKGSGNTVSIKSLKFCHSQLSNNSVSFFLYNLDHSHANYYFCNLSIFDPPPFKVTLTGGYLHIYESQLCCQLKFWLPIGCAAFVVVCILGCILICWLTKKKYSSSVHDPNGEYMFMRAVNTAKKSRLTDVTL [Q9Y6W8]”, the “percentage of EdU-negative” value in series [1] (setting [7]) was 25.2 ± 1.7%; in series [1] (setting [8]) it was 25.9 ± 0.78%; in series [2] (setting [7]), 4.29 ± 0.34%; in series [2] (setting [8]), 4.32 ± 0.26%.
Turning to “MKSLTWILGLWALAACFTPGESQRGPRGPYPPGPLAPPPPPCFPFGTGFVPPPHPPPYGPGRFPPPLSPPYGPGRIPPSPPPPYGPGRIQSHSLPPPYGPGYPQPPSQPRPYPPGPPFFPVNSPTDPALPTPAP”, the “percentage of EdU-negative” value in series [1] (setting [9]) came out at 22.6 ± 1%; in series [1] (setting [10]) it was 26.45 ± 0.12%; in series [2] (setting [9]), 5.63 ± 1.3%; in series [2] (setting [10]) it was 7.43 ± 0.82%.
The like results for “MKSLTWILGLWALAACFTPGESQRGPRGPYPPGPLAPPQPFGPGFVPPPPPPPYGPGRIPPPPPAPYGPGIFPPPPPQP” were, in that order, 26.1 ± 0.69%, 29.6 ± 2.1%, 5.18 ± 0.72% and 6.25 ± 0.39%.
Take “MKSLVLLLCLAQLWGCHSAPHGPGLIYRQPNCDDPETEEAALVAIDYINQNLPWGYKHTLNQIDEVKVWPQQPSGELFEIEIDTLETTCHVLDPTPVARCSVRQLKEHAVEGDCDFQLLKLDGKFSVVYAKCDSSPDSAEDVRKVCQDCPLLAPLNDTRVVHAAKAALAAFNAQNNGSNFQLEEISRAQLVPLPPSTYVEFTVSGTDCVAKEATEAAKCNLLAEKQYGFCKATLSEKLGGAEVAVTCMVFQTQPVSSQPQPEGANEAVPTPVVDPDAPPSPPLGAPGLPPAGSPPDSHVLLAAPPGHQLHRAHYDLRHTFMGVVSLGSPSGEVSHPRKTRTVVQPSVGAAAGPVVPPCPGRIRHFKV”: the “percentage of EdU-negative” value was 26.1 ± 1.4% in series [1] (setting [11]), 26.2 ± 2.4% in series [1] (setting [12]), 4.56 ± 0.2% in series [2] (setting [11]) and 6.7 ± 0.16% in series [2] (setting [12]).
On to “MKSVLLLTTLLVPAHLVAAWSNNYAVDCPQHCDSSECKSSPRCKRTVLDDCGCCRVCAAGRGETCYRTVSGMDGMKCGPGLRCQPSNGEDPFGEEFGICKDCPYGTFGMDCRETCNCQSGICDRGTGKCLKFPFFQYSVTKSSNRFVSLTEHDMASGDGNIVREEVVKENAAGSPVMRKWLNPR [Q9NQ30]”, for which the “percentage of EdU-negative” value stood at 24.2 ± 1% in series [1] (setting [13]), 25.25 ± 0.057% in series [1] (setting [14]), 4.84 ± 1.4% in series [2] (setting [13]) and 5.91 ± 0.64% in series [2] (setting [14]).
